The numbers were not newly measured in paper PMC5803174, which cites them from elsewhere.

Series [1] concerns the target beta-cardiac myosin proximal S2 (Homo sapiens) (UniProt P12883).
Series [2] addresses beta-cardiac myosin short S1 (Homo sapiens) (UniProt P12883).

Turning to MyBP-C C1-C2 (from UniProt Q14896), the Kd (commonly the constant that tells how readily two partners part at equilibrium) in series [1] was 5 µM.

Consider cardiac MyBP-C (from UniProt Q14896), for which, in series [2], the Kd was 17.5 µM.
